In patent publication US20090305254, “Method and Apparatus for Assaying Test Substance in Sample” (TECHNO MEDICA CO., LTD., published 2009):

Key:
[1] = target: T1, bovine serum albumin (BSA) (Bos taurus, UniProt P02769 P02769:25-607); assay: control; PQQGDH-labeled aptamer, electrochemical bead capture assay; no BSA-concentration-dependent current; details: G4 with inserted hairpin (15-nt loop 27-41, 5-bp stem)
Method: Each sample solution (100 μL), which contained thrombin (0 to 10 μg/mL, […]) and the PQQGDH-labeled aptamer (0.1 U, approx. 10 μmol) prepared above in Procedure (2), was added to the DNA-immobilized carrier (10 μL) obtained above in Procedure (1), and the resulting mixture was stirred at room temperature for 15 minutes and then centrifuged. Using the thus-obtained supernatant (20 μL) and 10 mM MOPS (pH 7.2, 4 mL in total), which contained mPMS (1-methoxyphenazine methosulphate) (6 mM), PQQ (1 μM) and CaCl₂ (1 mM), as a reaction solution, a gold electrode as a working electrode and a platinum electrode as an opposing electrode, the response current was measured at an impression potential of +100 mV vs Ag/AgCl while adding glucose to a final concentration of 60 mM. The measurement was conducted at 25° C. With respect to each of sample solutions containing thrombin at 50 to 1,000 μg/mL ([…]), detection was similarly conduced by doubling the amounts of the DNA-immobilized carrier and ap-GDH to be employed.
A thrombin-concentration-dependent increase in current value was observed up to the level of 10 μg/mL. When BSA was used as a control in place of thrombin, the resultant current value was low, no BSA-concentration-dependent increase in current value was observed (FIG. 4(b)), and the detection limit was 100 ng/mL (2.7 nM) (FIG. 4(a)). […]

thrombin = thrombin (UniProt P00734;P00734 P00734:328-363,P00734:364-622); assay: EMSA; 10 mM MOPS pH 7.4, room temp; thrombin-bound aptamer does not hybridize FITC 15-mer complementary strand; PQQGDH-labeled aptamer bead assay detection limit 100
[2] = target: T1, bovine serum albumin (BSA); assay: SPR; control; PBS with 1 mM MgCl2 pH 7.4; also no response current at 1 uM in electrochemical assay; details: label: biotin (SPR); hairpin
Method: Biotinylated CaAp-1 was immobilized on an SPR chip (SA chip), and variations in SPR signal when IgE solutions of various concentrations (100 μL) were fed were observed. Upon measurement of interaction, an Mg2+-containing PBS buffer (138 mM NaCl, 2.7 mM KCl, 8.1 mM NaHPO₄, 1.1 mM KHPO₄, 1 mM MgCl₂, pH 7.4) was used, and the flow rate was set at 20 μL/min. Observed as a control were variations in SPR signal when bovine serum albumin (BSA) solutions of various concentrations were fed.
To beads (20 μL; solid amount: 10 μL) with “NEUTRAVIDIN” (trade name) immobilized as a biotin-binding substance thereon, the biotin-modified 14-mer capture oligonucleotide (0.5 nmol) was added. With 100 mM phosphate buffer and 150 mM […] (pH7.2), the total volume was adjusted to 500 μL. The resultant mixture was stirred overnight at 4° C. to immobilize the 14-mer capture oligonucleotide on the beads. […] Using the supernatant (20 μL) and 10 mM MOPS (pH 7.2), which contained CaCl₂ (1 mM) and PQQ (1 μM), as a reaction solution (total volume: 4 mL), a gold electrode as a working electrode and a platinum electrode as an opposing electrode, the response current was measured at an impression potential of +100 mV vs Ag/AgCl while adding glucose to a final concentration of 60 mM. […]

T1 sequence (P02769 25-607, one chain of several): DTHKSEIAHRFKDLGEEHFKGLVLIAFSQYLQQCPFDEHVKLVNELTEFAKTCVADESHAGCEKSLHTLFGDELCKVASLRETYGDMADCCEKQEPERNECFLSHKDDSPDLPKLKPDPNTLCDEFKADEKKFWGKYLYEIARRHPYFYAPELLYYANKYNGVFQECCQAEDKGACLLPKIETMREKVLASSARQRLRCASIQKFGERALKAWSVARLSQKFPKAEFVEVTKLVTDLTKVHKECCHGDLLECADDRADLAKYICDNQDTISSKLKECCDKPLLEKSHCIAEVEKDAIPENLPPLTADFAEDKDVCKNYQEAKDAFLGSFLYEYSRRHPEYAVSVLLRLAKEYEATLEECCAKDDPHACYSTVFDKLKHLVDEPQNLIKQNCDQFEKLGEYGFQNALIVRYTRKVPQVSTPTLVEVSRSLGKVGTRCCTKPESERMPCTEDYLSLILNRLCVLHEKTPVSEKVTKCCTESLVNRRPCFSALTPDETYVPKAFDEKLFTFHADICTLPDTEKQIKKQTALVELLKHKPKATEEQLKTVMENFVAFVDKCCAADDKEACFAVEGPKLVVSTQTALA

Binder	binding result [1]	binding result (thrombin)	binding result [2]
structure-switching thrombin aptamer with inserted hairpin (22-46 nt) (ssDNA) DNA: CACTGGTAGGTTGGTGTGGTTGGACGACGAATTCATGATCACGTCCTTGGGGCCAGTG	no binding	binds	
TCACGTTTATCCGTCCCTCCTAGTGGCGTGA (ssDNA) [CaAp-1 IgE-binding aptamer]			no binding
